In patent US20140322726A1:

What was measured:
[1] = molecular target: endogenous human asparagine synthetase (ASNS) in leukemia cells (human) (UniProt P08243); assay: flow cytometry with QIFIKIT calibration beads, K562 cells, control antibody at 3 ug/ml
[2] = molecular target: endogenous human asparagine synthetase (ASNS) in leukemia cells (human) (UniProt P08243); assay: flow cytometry on fixed, permeabilised K562 cells (high ASNS), control antibody at 3 ug/ml
[3] = molecular target: endogenous human asparagine synthetase (ASNS) in leukemia cells (human) (UniProt P08243); assay: flow cytometry on fixed, permeabilised MOLT-4 cells (extremely low ASNS), control antibody at 3 ug/ml
[4] = molecular target: endogenous human asparagine synthetase (ASNS) in leukemia cells (human) (UniProt P08243); assay: flow cytometry with QIFIKIT calibration beads, MOLT-4 cells, control antibody at 3 ug/ml

Chain of UniProt P08243 (P08243 2-561): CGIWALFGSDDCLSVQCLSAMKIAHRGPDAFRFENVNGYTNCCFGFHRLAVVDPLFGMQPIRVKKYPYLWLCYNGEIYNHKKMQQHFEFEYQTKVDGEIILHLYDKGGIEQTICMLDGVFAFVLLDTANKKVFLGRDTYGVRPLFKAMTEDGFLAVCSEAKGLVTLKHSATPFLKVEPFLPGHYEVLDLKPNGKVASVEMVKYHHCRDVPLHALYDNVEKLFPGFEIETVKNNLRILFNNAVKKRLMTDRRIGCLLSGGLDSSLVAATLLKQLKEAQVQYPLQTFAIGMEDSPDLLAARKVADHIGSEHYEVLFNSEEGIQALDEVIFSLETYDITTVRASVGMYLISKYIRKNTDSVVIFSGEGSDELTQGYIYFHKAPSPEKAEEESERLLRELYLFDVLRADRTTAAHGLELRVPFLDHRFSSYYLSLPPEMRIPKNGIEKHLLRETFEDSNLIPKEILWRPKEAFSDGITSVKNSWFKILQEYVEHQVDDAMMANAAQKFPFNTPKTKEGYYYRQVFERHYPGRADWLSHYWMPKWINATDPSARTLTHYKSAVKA

What does the source list for “control mouse IgG (3423, 2AHB12; Institute of Immunology) (antibody)”?
ABC (antibody binding capacity) [1]: 874 units/cell; MFI (arbitrary units) [2]: 4.56; MFI (arbitrary units) [3]: 3.17; ABC (antibody binding capacity) [4]: 631 units/cell
